Results on 5 substances are retold here after PMC3741289.

Test [1] has as its target wild type HspB5 (αB-crystallin) (human) (UniProt P02511). As to the kind of experiment: SEC; cells treated for 2 h with 60 µM menadione before lysis; 10,000×g supernatant on Sepharose 6B in TEM buffer; fractions immunoblotted. For orientation: SEC sorts molecules by how far they enter the pores of the column.
For test [2], the target named is HspB1 (Hsp27) (human (endogenous in HeLa)) (UniProt P04792). As to the kind of experiment: co-IP; as the 150 mM experiment, but washes of the immunoprecipitated proteins in IPP300 buffer (0.3 M NaCl).
Test [3] has the same target. Nature of the test: co-IP; pooled gel filtration fractions (pool I of WT cells, pool II of R120G cells) with anti-HspB1 or anti-HspB5 antibody, 4 h at 4°C, protein G sepharose; washes in IPP150 (20 mM Tris-HCl pH 8, 150 mM NaCl, 0.05% NP-40); immunoblot of total, precipitate and depleted supernatant.
Test [4] addresses wild type HspB5 (αB-crystallin) (human) (UniProt P02511). As to the kind of experiment: SEC; untreated Neo, WT or R120G HeLa cells lysed in TEM buffer with 0.1% Triton X-100; 10,000×g supernatant on a Sepharose 6B column (1×100 cm) in TEM buffer (20 mM Tris-HCl pH 7.4, 20 mM NaCl, 5 mM MgCl2, 0.1 mM EDTA); pooled fractions immunoblotted.
The target is the same in test [5]. As to the kind of experiment: co-IP; as the 150 mM experiment, but washes of the immunoprecipitated proteins in IPP300 buffer (0.3 M NaCl).

Sequence of wild type HspB5 (αB-crystallin) (human) (P02511 whole entry): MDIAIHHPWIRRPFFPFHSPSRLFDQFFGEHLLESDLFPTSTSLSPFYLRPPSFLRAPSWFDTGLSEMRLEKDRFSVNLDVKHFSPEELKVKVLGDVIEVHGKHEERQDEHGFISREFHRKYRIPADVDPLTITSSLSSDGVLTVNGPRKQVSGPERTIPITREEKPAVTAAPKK
Sequence of HspB1 (Hsp27) (human (endogenous in HeLa)) (P04792 whole entry): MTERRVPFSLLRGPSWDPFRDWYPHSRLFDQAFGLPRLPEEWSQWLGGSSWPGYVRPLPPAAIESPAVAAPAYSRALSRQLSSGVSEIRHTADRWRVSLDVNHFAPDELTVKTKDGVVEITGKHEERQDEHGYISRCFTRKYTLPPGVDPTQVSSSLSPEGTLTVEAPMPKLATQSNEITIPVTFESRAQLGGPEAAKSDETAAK

Turning to “HspB1 phosphorylated at serine 15 (from UniProt P04792 1-205) (natural protein)”, in test [1], the percent of the soluble phosphorylated form in the complex came out at 56% and the percent of the total cellular content of the phosphorylated form in the complex came out at 28%.
In test [2], “wild type HspB5 (αB-crystallin) (from UniProt P02511 1-175) (natural protein)” showed a percent of the partner removed from the complex by the 300 mM NaCl wash of 40%. Further, the percent of the proteins in the pooled fractions that were in the complex in test [3] was 100%.
In turn, “HspB1 phosphorylated at serine 82 (from UniProt P04792 1-205) (natural protein)” registered a percent of the soluble phosphorylated form in the complex in test [1] of 51%. The percent of the total cellular content of the phosphorylated form in the complex in test [1] stood at 27%; in test [4], 56%.
For the substance “HspB1 phosphorylated at serine 78 (from UniProt P04792 1-205) (natural protein)”, in test [1], the percent of the soluble phosphorylated form in the complex is 65% and the percent of the total cellular content of the phosphorylated form in the complex turned out to be 31%.
In turn, “HspB1 (Hsp27) (from UniProt P04792 1-205) (natural protein)” showed a percent of the partner removed from the complex by the 300 mM NaCl wash in test [5] of 40%. The percent of soluble HspB1 back in the small oligomers (out of the complex) in test [1] was 38%. The substance also returned a percent of HspB1 sharing the native size of HspB5 in test [4] of 90%.
